Data published in the RNAGym collection of RNA variant scans (doi:10.7554/elife.80360).

B1: CPEB3 Ribozyme (parent)
chain: GGGGGCCACAGCAGAAGCGUUCACGUCGCGGCCCCUGUCAGAUUCUGGUGAAUCUGCGAAUUCUGCUGU

Variants of: B1
Assay: self-cleavage, relative activity (ratio to wild type); higher = more cleavage; co-transcriptional

| Variant | self-cleavage |
| --- | --- |
| C34U G47A | 0.958 |
| C34U G47U | 0.995 |
| C34U G47C | 0.968 |
| C33U U36G | 0.295 |
| C33U U36C | 0.874 |
| C33U U53C | 0.861 |
| C33U U53G | 0.727 |
| C33U U53A | 0.932 |
| C33G U44C | 0.576 |
| C33G U44G | 0.333 |
| C33G G58C | 0.703 |
| C33G G58U | 0.821 |
| C33U U55A | 0.965 |
| C34A U46G | 0.843 |
| C34G G50C | 0.64 |
| C34G G50U | 0.839 |
| C34A U43A | 0.514 |
| C34A U43G | 0.479 |
| C34U G56A | 0.955 |
| C34U G56C | 0.792 |
| C34U G56U | 0.975 |
| C33G G65U | 0.376 |
| C33G G65A | 0.511 |
| C33G G65C | 0.424 |

| Variant | self-cleavage |
| --- | --- |
| C34G U44G | 0.446 |
| C34G U44C | 0.578 |
| C34A A51G | 0.469 |
| C34U A42C | 0.843 |
| C34U A42G | 0.932 |
| C34U A42U | 0.924 |
| C33G C45A | 0.47 |
| C33G C45G | 0.537 |
| C33G C45U | 0.641 |
| C34A C54U | 0.69 |
| C33G G68A | 0.922 |
| C33G U67C | 0.777 |
| C34U C54U | 0.985 |
| C34U C54G | 0.819 |
| C34U C54A | 0.809 |
| C33G U64G | 0.395 |
| C33G U64A | 0.638 |
| C33G U64C | 0.484 |
| C33U G65U | 0.749 |
| C34A C63U | 0.817 |
| C34A C63G | 0.411 |
| C34A C63A | 0.495 |
| C33U A60G | 0.814 |
| C33U A60U | 0.505 |

| Variant | self-cleavage |
| --- | --- |
| C33G U55G | 0.38 |
| C33G U55A | 0.571 |
| C33U C57U | 0.345 |
| C33U G37C | 0.242 |
| C33U G37A | 0.265 |
| C33G C63U | 0.632 |
| C33G C63G | 0.384 |
| C34G U46G | 0.766 |
| C34G U46A | 0.776 |
| C33U G41U | 0.821 |
| C33U G41C | 0.728 |
| C33U A51G | 0.922 |
| C33U A51C | 0.948 |
| C33U A51U | 0.963 |
| C34U A60U | 0.452 |
| C34U A60G | 0.789 |
| C34U A60C | 0.371 |
| C34U A40G | 0.963 |
| C34U A40U | 0.838 |
| C34U A40C | 0.602 |
| C34U A59C | 0.661 |
| C34U A59G | 0.899 |
| C34A U64C | 0.728 |
| C34A U64A | 0.794 |

| Variant | self-cleavage |
| --- | --- |
| C34U G48U | 0.983 |
| C34U G37C | 0.226 |
| C34U G37U | 0.247 |
| C34G U53G | 0.27 |
| C34G U53C | 0.562 |
| C33G A40C | 0.324 |
| C33G A40U | 0.273 |
| C33U C39A | 0.866 |
| C34A U61A | 0.466 |
| C34A U61C | 0.432 |
| C34A G65A | 0.617 |
| C34A G65U | 0.57 |
| C34A A42C | 0.46 |
| C33G U49C | 0.645 |
| C33G U49A | 0.748 |
| C33U G48C | 0.998 |
| C33U G48A | 1 |
| C33U G48U | 1.03 |
| C34G A59U | 0.234 |
| C34G A59G | 0.538 |
| C33G C54G | 0.338 |
| C33G C54U | 0.727 |
| C33U U38G | 0.215 |
| C33U U38C | 0.899 |

| Variant | self-cleavage |
| --- | --- |
| C34U C57U | 0.385 |
| C34U C57A | 0.315 |
| C33G G50A | 0.687 |
| C33G G50C | 0.661 |
| C33G G50U | 0.578 |
| C34G U69C | 0.971 |
| C34G U69A | 0.886 |
| C34U U36G | 0.256 |
| C34U U36C | 0.922 |
| C33U U64C | 0.92 |
| C33U U64A | 0.919 |
| C33U U64G | 0.941 |
| C33G U62G | 0.374 |
| C33G U62A | 0.391 |
| C34G C45A | 0.641 |
| C34G C45U | 0.746 |
| C34G C45G | 0.604 |
| C33G U43G | 0.377 |
| C34A G58A | 0.656 |
| C34G U49C | 0.689 |
| C34G U49G | 0.64 |
| C34G U49A | 0.784 |
| C33G C66A | 0.526 |
| C33G C66U | 0.649 |

| Variant | self-cleavage |
| --- | --- |
| C34U G41A | 0.828 |
| C34A A52G | 0.497 |
| C34A A52C | 0.597 |
| C34G U61C | 0.423 |
| C34A C35U | 0.226 |
| C34A C35G | 0.177 |
| C34G A52U | 0.661 |
| C34G U36G | 0.263 |
| C34G U36C | 0.819 |
| C33U U43G | 0.678 |
| C33U U43A | 0.915 |
| C34A C57A | 0.255 |
| C34A C57G | 0.285 |
| C34A C57U | 0.285 |
| C33U U46G | 0.979 |
| C33U U46A | 0.98 |
| C33U U46C | 0.977 |
| C33G A51G | 0.739 |
| C33G A51U | 0.415 |
| C33G A42U | 0.556 |
| C33G U36A | 0.13 |
| C33G U36G | 0.25 |
| C34G U67C | 0.766 |
| C34G U67G | 0.894 |

| Variant | self-cleavage |
| --- | --- |
| C34G G47A | 0.769 |
| C34G G47C | 0.724 |
| C34G G47U | 0.605 |
| C33U A59G | 0.959 |
| C33U A59C | 0.706 |
| C33U A59U | 0.8 |
| C33G C57A | 0.38 |
| C33G C57U | 0.316 |
| C33G C57G | 0.259 |
| C33U G56A | 0.949 |
| C33U G56C | 0.849 |
| C33U G56U | 0.963 |
| C33U U49C | 1.02 |
| C33U U49A | 0.97 |
| C33U U49G | 0.996 |
| C33U G68C | 1.02 |
| C33G U69A | 0.82 |
| C33G U69G | 0.899 |
| C34G C57G | 0.332 |
| C34A U36A | 0.229 |
| C34U G65A | 0.919 |
| C34U G65C | 0.682 |
| C33G U38A | 0.582 |
